Source: patent US20170073395A1 (Pfizer, published 2017)

T1: Human A33 ectodomain protein (human, UniProt Q99795 22-235)
T1 construct: extracellular domain
T1 sequence (looked up): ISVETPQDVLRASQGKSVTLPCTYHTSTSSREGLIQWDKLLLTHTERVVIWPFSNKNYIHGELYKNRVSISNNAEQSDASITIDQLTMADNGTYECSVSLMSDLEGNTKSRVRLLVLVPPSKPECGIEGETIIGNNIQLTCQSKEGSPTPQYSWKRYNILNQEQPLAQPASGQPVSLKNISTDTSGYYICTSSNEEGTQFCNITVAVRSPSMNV

T2: mTNFa (mouse, UniProt P06804 80-235)
T2 construct: Non-target panel protein
T2 sequence (looked up): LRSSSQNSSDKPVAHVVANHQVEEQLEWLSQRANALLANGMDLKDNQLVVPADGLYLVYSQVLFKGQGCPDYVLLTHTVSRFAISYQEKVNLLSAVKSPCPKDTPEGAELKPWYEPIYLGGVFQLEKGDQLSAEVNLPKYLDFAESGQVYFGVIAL

T3: hLAMP-1 (human, UniProt P11279 29-382, limits assumed)
T3 construct: Non-target panel protein
T3 sequence (looked up): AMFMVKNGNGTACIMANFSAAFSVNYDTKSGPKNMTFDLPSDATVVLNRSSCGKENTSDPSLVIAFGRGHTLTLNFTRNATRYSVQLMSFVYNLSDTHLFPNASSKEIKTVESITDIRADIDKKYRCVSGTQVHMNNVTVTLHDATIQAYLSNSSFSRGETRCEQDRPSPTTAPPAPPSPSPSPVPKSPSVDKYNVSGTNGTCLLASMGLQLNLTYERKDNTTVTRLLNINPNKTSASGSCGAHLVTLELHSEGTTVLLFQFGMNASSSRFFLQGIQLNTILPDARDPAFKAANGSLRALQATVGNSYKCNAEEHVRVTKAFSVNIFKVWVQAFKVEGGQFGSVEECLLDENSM

T4: hCXCL13 (human, UniProt O43927 23-109)
T4 construct: Non-target panel protein
T4 sequence (looked up): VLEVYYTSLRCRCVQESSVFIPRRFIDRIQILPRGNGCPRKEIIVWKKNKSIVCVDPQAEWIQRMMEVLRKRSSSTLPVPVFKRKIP

T5: mICAM2 (mouse, UniProt P35330 23-222, limits assumed)
T5 construct: Non-target panel protein
T5 sequence (looked up): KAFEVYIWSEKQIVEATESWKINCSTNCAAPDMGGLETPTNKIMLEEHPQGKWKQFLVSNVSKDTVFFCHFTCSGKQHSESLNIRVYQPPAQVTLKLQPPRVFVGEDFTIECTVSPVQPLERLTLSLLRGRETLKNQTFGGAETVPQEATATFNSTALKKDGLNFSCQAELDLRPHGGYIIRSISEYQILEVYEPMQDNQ

T6: hFceR1 (human, UniProt P12319 26-205)
T6 construct: Non-target panel protein
T6 sequence (alpha): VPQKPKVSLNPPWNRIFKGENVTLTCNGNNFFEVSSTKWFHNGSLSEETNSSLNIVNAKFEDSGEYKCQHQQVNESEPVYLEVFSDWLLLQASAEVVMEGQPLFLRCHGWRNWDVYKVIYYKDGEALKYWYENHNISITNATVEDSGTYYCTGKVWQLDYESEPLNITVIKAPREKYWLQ


Columns and labels:
[1] = target: T1, Human A33 ectodomain protein; test: HTRF epitope competition, IgG titrated; competitor parental IgG (Par-A33)
[2] = target: T7, mICAM1 (mouse, UniProt P13597 28-485, limits assumed); test: Biacore specificity assay: IgG immobilised (about 300 RU), antigen injected at 500 nM
T7 construct: Non-target panel protein
Procedure: (§1) Biacore specificity analyses were performed using the T-200 biosensor, series S CM5 chips, an amine-coupling kit, 10 mM sodium acetate immobilization buffer at pH 5.0, 10× HBS-P running buffer and NaOH for regeneration (GE Healthcare). A predefined ligand (IgG) immobilization program was set up to immobilize approximately 300 Response Units (RU) on the flow cell for each IgG to be tested. For Anti-RAGE and anti-A33, a panel of fully-purified recombinant target and non-target antigens were diluted in HBS-P running buffer to a final concentration of 500 nM. Four groups of antigens were examined, including: cell membrane proteins (mTRKB, hTRKB, mEGFR, hEGFR, hFceR1, hIL-21R, mICAM1, mICAM2, hICAM1, hCD33, hLAMP-1, hLOX-1, and), soluble signaling molecules (mTNFa, hVEGF, hCXCL13) and albumins (BSA, HSA and MSA). These proteins were injected at 50 μl/min for 3 min, followed by a 5 sec pulse of 20 mM NaOH for regeneration of the chip surface. For pTau, a series of pTau-derived phosphorylated and non-phosphorylated peptides were flowed, as in Shih et al.³. All sensorgrams were analyzed using the Biacore T-200 evaluation software.

[3] = target: T8, hICAM1 (human, UniProt P05362 28-480, limits assumed); test: as above
T8 construct: Non-target panel protein
Procedure: as §1

[4] = target: T9, hVEGF (human, UniProt P15692-4 27-191, limits assumed); test: as above
T9 construct: Non-target panel protein
Procedure: as §1

[5] = target: T10, hIL-21R (human, UniProt Q9HBE5 20-232, limits assumed); test: as above
T10 construct: Non-target panel protein
Procedure: as §1

[6] = target: T11, hCD33 (human, UniProt P20138 18-259, limits assumed); test: as above
T11 construct: Non-target panel protein
Procedure: as §1

[7] = target: T2, mTNFa; test: as above
Procedure: as §1

[8] = target: T12, mEGFR (mouse, UniProt Q01279 25-647, limits assumed); test: as above
T12 construct: Non-target panel protein
Procedure: as §1

[9] = target: hLOX-1 (human, UniProt P78380 61-273); test: as above
Procedure: as §1

[10] = target: T3, hLAMP-1; test: as above
Procedure: as §1

[11] = target: T4, hCXCL13; test: as above
Procedure: as §1

[12] = target: T13, mTRKB (mouse, UniProt P15209 32-429, limits assumed); test: as above
T13 construct: Non-target panel protein
Procedure: as §1

[13] = target: T14, hEGFR (human, UniProt P00533 25-645, limits assumed); test: as above
T14 construct: Non-target panel protein
Procedure: as §1

[14] = target: T5, mICAM2; test: as above
Procedure: as §1

[15] = target: T6, hFceR1; test: as above
Procedure: as §1

[16] = target: T15, hTRKB (human, UniProt Q16620 32-430, limits assumed); test: as above
T15 construct: Non-target panel protein
Procedure: as §1

[17] = target: T1, Human A33 ectodomain protein; test: Biacore T-200 SPR, IgG immobilised (~100 RU), purified target protein injected
Procedure: Biacore analysis was performed using the T-200 biosensor, series S CM5 chips, an amine-coupling kit, 10 mM sodium acetate immobilization buffer at pH 5.0, 10×HBS-P running buffer and NaOH for regeneration (GE Healthcare). Kinetic assay conditions were established to minimize the influence of mass transfer, avidity and rebinding events. A predefined ligand immobilization program was set up to immobilize approximately 100 Response Units (RU) of IgG on the chip. Purified target proteins were diluted in HBS-P running buffer to a range of final concentrations and injected at 50 μl/min for 3 mins. Dissociation was allowed to proceed for 10 min followed by a 5 sec pulse of 20 mM NaOH for regeneration of the chip surface. All sensorgrams were analyzed using the Biacore T-200 evaluation software.

[18] = target: T16, mRAGE (mouse, UniProt Q62151 24-342, limits assumed); test: Biacore specificity assay: IgG immobilised (about 300 RU), antigen m-RAGE-fc injected at 500 nM
T16 construct: also called mouse RAGE
Procedure: as §1

[19] = target: T17, hRAGE (human, UniProt Q15109 24-344, limits assumed); test: Biacore specificity assay: IgG immobilised (about 300 RU), antigen h-RAGE-fc injected at 500 nM
T17 construct: also called human RAGE
Procedure: as §1

T9 sequence (P15692 other isoform, or with tags, fused parts or gaps limits assumed): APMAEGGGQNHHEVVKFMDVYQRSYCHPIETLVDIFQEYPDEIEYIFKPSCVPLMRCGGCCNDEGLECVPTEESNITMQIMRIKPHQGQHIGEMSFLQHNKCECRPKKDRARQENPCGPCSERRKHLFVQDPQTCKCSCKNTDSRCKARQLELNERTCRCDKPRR
T11 sequence (P20138 18-259 limits assumed): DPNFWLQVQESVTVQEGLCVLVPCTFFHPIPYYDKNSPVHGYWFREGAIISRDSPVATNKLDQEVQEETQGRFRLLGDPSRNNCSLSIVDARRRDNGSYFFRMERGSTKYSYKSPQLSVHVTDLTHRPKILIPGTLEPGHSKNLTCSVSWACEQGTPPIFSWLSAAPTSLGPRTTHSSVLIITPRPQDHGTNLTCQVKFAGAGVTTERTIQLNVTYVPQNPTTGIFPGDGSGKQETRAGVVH
T10 sequence (Q9HBE5 20-232 limits assumed): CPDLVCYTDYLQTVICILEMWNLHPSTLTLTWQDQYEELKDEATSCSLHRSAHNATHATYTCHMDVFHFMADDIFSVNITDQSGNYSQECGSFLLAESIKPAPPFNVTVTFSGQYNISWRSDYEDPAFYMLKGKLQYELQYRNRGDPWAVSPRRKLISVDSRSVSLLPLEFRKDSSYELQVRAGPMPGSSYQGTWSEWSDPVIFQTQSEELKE
T13 sequence (P15209 32-429 limits assumed): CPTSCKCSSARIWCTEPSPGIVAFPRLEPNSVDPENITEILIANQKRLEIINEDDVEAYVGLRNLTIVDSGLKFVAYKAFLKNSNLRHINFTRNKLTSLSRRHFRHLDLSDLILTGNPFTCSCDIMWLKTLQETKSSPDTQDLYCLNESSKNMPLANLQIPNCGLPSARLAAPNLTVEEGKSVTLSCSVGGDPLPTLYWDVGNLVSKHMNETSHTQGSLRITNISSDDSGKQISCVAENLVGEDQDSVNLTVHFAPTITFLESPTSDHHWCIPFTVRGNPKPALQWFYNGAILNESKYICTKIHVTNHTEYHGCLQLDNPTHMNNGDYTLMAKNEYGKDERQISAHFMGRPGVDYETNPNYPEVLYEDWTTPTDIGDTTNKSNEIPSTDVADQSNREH
T8 sequence (P05362 28-480 limits assumed): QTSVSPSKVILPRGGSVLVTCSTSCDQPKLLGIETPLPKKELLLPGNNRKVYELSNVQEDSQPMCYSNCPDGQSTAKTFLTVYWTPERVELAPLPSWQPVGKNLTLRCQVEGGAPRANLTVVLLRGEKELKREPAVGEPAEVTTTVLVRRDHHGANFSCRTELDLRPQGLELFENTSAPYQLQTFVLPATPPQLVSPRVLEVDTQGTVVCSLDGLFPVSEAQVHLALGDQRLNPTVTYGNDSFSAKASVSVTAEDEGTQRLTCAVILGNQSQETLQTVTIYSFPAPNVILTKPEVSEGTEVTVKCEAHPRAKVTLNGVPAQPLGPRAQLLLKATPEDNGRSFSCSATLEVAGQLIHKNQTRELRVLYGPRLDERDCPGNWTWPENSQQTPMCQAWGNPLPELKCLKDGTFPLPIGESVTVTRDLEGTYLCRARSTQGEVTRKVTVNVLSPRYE
T7 sequence (P13597 28-485 limits assumed): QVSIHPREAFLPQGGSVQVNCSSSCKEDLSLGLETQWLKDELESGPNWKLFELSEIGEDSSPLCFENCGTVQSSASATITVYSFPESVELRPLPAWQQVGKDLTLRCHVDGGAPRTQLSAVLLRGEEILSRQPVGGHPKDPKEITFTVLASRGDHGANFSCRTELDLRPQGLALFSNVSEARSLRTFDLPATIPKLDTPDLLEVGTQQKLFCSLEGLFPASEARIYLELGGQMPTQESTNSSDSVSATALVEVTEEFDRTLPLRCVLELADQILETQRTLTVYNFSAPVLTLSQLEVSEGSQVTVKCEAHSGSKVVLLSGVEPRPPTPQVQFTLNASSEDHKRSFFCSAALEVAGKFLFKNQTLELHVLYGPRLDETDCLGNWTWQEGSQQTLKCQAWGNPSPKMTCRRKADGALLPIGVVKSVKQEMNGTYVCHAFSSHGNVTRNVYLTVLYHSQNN
T15 sequence (Q16620 32-430 limits assumed): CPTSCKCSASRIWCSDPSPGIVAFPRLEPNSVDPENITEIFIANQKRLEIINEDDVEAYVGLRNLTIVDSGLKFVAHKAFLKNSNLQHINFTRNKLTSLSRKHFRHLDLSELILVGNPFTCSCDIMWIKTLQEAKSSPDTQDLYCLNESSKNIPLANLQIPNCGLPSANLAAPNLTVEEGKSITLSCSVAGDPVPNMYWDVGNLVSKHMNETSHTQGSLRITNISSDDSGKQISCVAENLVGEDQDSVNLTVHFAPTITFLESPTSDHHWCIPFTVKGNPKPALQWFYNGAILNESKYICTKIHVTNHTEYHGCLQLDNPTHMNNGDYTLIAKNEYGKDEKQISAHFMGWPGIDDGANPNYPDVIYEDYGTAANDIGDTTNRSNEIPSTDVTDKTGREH
T17 sequence (Q15109 24-344 limits assumed): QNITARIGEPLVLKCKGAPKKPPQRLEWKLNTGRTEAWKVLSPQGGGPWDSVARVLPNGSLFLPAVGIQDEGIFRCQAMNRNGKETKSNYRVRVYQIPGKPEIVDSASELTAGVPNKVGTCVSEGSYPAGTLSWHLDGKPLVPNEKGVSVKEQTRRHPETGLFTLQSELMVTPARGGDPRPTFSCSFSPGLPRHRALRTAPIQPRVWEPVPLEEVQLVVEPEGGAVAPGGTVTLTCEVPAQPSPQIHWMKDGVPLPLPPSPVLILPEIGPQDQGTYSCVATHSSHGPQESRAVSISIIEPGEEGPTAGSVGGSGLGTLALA
T16 sequence (Q62151 24-342 limits assumed): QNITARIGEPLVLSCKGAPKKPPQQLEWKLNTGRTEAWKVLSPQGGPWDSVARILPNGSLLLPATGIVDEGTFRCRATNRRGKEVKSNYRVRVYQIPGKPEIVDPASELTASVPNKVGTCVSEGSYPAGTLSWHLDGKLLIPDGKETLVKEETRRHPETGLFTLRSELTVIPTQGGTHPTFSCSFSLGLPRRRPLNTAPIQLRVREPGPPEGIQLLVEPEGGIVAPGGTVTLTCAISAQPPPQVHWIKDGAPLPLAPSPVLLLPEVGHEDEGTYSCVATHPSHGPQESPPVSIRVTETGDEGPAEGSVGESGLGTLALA

IC50 [1] | binding result [2] | binding result [3] | binding result [4] | binding result [5] | binding result [6] | binding result [7] | binding result [8] | binding result [9] | binding result [10] | binding result [11] | binding result [12] | binding result [13] | binding result [14] | binding result [15] | binding result [16] | Kd [17] | binding result [18] | binding result [19] | Binder
2.9 nM | no binding (tested: 500 nM) | no binding (tested: 500 nM) | no binding (tested: 500 nM) | no binding (tested: 500 nM) | no binding (tested: 500 nM) | no binding (tested: 500 nM) | no binding (tested: 500 nM) | no binding (tested: 500 nM) | no binding (tested: 500 nM) | no binding (tested: 500 nM) | no binding (tested: 500 nM) | no binding (tested: 500 nM) | no binding (tested: 500 nM) | no binding (tested: 500 nM) | no binding (tested: 500 nM) | 2.1 nM |  |  | Chim-A33 IgG (rabbit anti-A33 parental v-domains on the human IgG1 backbone) (antibody, V domains shown, also called Par-A33; A33 Rabbit) VH: QEQLMESGGGLVTLGGSLKLSCKASGIDFSHYGISWVRQAPGKGLEWIAYIYPNYGSVDYASWVNGRFTISLDNAQNTVFLQMISLTAADTATYFCARDRGYYSGSRGTRLDLWGQGTLVTISS VL: ELVMTQTPPSLSASVGETVRIRCLASEFLFNGVSWYQQKPGKPPKFLISGASNLESGVPPRFSGSGSGTDYTLTIGGVQAEDVATYYCLGGYSGSSGLTFGAGTNVEIK
 | no binding (tested: 500 nM) | no binding (tested: 500 nM) | no binding (tested: 500 nM) | no binding (tested: 500 nM) | no binding (tested: 500 nM) | no binding (tested: 500 nM) | no binding (tested: 500 nM) | no binding (tested: 500 nM) | no binding (tested: 500 nM) | no binding (tested: 500 nM) | no binding (tested: 500 nM) | no binding (tested: 500 nM) | no binding (tested: 500 nM) | no binding (tested: 500 nM) | no binding (tested: 500 nM) |  | binds | binds | Par-RAGE IgG (rat anti-RAGE XT-M4 parental v-domains on the human IgG1 backbone) (antibody, V domains shown, Human IgG1 backbone; also called XTM4 RAGE) VH: EVQLVESGGGLVQPGRSLKLSCVVSGFTFNNYWMTWIRQTPGKGLEWVASIDNSGDNTYYPDSVKDRFTISRDNAKSTLYLQMNSLRSEDTATYYCTRGGDITTGFDYWGQGVMVTVSS VL: DIQMTQSPSSMSVSLGDTITITCRASQDVGIYVNWFQQKPGKSPRRMIYRATNLADGVPSRFSGSRSGSIYSLTISSLESEDVADYHCLEFDEHPLTFGSGTKVEIK
